From the RNAGym collection of RNA variant scans (doi:10.7554/elife.80360)

B1: CPEB3 Ribozyme (parent)
chain: GGGGGCCACAGCAGAAGCGUUCACGUCGCGGCCCCUGUCAGAUUCUGGUGAAUCUGCGAAUUCUGCUGU

Variants of: B1
Assay: self-cleavage, relative activity (ratio to wild type); higher = more cleavage; co-transcriptional

Row | Variant | self-cleavage
1 | GGGGGCCACAGCAGAAGCGUUCACUUCGCUGCCCCUGUCAGAUUCUGGUGAAUCUGCGAAUUCUGCUGU | 0.162
2 | GGGGGCCACAGCAGAAGCGUUCACUUAGCGGCCCCUGUCAGAUUCUGGUGAAUCUGCGAAUUCUGCUGU | 0.213
3 | GGGGGCCACAGCAGAAGCGUUCACUUUGCGGCCCCUGUCAGAUUCUGGUGAAUCUGCGAAUUCUGCUGU | 0.164
4 | GGGGGCCACAGCAGAAGCGUUCACUUCGCGGCCCCUGUCAGAUUCUGGUGAAUCUGCUAAUUCUGCUGU | 0.186
5 | GGGGGCCACAGCAGAAGCGUUCACUUCGCGGCCCCUUUCAGAUUCUGGUGAAUCUGCGAAUUCUGCUGU | 0.103
6 | GGGGGCCACAGCAGAAGCGUUCACUUCGCGGCCCCUAUCAGAUUCUGGUGAAUCUGCGAAUUCUGCUGU | 0.156
7 | GGGGGCCACAGCAGAAGCGUUCACCUCGCGGCCCCUGUCAGAUUCUGGUGAAUCUGCGAAUUCUGCUGA | 0.221
8 | GGGGGCCACAGCAGAAGCGUUCACCUCGCGGCCCCUGUCAGAUUCUGGUGAAUCUGCGAAUUCUGCUGG | 0.309
9 | GGGGGCCACAGCAGAAGCGUUCACUUCGCGGCCACUGUCAGAUUCUGGUGAAUCUGCGAAUUCUGCUGU | 0.153
10 | GGGGGCCACAGCAGAAGCGUUCACGACGCGGCCACUGUCAGAUUCUGGUGAAUCUGCGAAUUCUGCUGU | 0.436
11 | GGGGGCCACAGCAGAAGCGUUCACUUCGCGGCCCCUGUAAGAUUCUGGUGAAUCUGCGAAUUCUGCUGU | 0.137
12 | GGGGGCCACAGCAGAAGCGUUCACUUCGCGGCCCCUGUCACAUUCUGGUGAAUCUGCGAAUUCUGCUGU | 0.103
13 | GGGGGCCACAGCAGAAGCGUUCACUUCGCGGCCCCUGUCAUAUUCUGGUGAAUCUGCGAAUUCUGCUGU | 0.173
14 | GGGGGCCACAGCAGAAGCGUUCACUUCGCGGCCCCUGUCAGAUUCUGGUGAAUCUGCGAAUUCUUCUGU | 0.187
15 | GGGGGCCACAGCAGAAGCGUUCACUUCGCGGCCCCUGUCAGAUUCUGGUGAAUCUGCGAAUUCUACUGU | 0.184
16 | GGGGGCCACAGCAGAAGCGUUCACUUCGCGGCCCCUGUCAGAUUGUGGUGAAUCUGCGAAUUCUGCUGU | 0.133
17 | GGGGGCCACAGCAGAAGCGUUCACGACGUGGCCCCUGUCAGAUUCUGGUGAAUCUGCGAAUUCUGCUGU | 0.36
18 | GGGGGCCACAGCAGAAGCGUUCACGACGAGGCCCCUGUCAGAUUCUGGUGAAUCUGCGAAUUCUGCUGU | 0.46
19 | GGGGGCCACAGCAGAAGCGUUCACUUCGUGGCCCCUGUCAGAUUCUGGUGAAUCUGCGAAUUCUGCUGU | 0.206
20 | GGGGGCCACAGCAGAAGCGUUCACGACGCGGCCCCUGUCAGAUUCUGGUGAAUCUGCGCAUUCUGCUGU | 0.322
21 | GGGGGCCACAGCAGAAGCGUUCACUUCGCGGCCCCUGUCAGAUUCUGGUGAAUCUGCGAAUUCGGCUGU | 0.189
22 | GGGGGCCACAGCAGAAGCGUUCACUUCGCGGCCCCUGUCAGAUUCUGGUGAAUCUGCGAAUUCUGCUGA | 0.136
23 | GGGGGCCACAGCAGAAGCGUUCACUGCGCGGCCCCUGUCAGAUUCUGGUGAAUCUGCGAAUUCUGCUGU | 0.0885
24 | GGGGGCCACAGCAGAAGCGUUCACUUCGCGGCCCCGGUCAGAUUCUGGUGAAUCUGCGAAUUCUGCUGU | 0.155
25 | GGGGGCCACAGCAGAAGCGUUCACUUCGCGGCCCCUGUCAGAUUCUGGUGAAUCUGCGAACUCUGCUGU | 0.179
26 | GGGGGCCACAGCAGAAGCGUUCACUUCGCGGCCCCUGUCAGAUUCUGGUGAAUCUGCGAAAUCUGCUGU | 0.175

Row | Variant | self-cleavage
27 | GGGGGCCACAGCAGAAGCGUUCACUUCGCGGCCCCUGUCAGACUCUGGUGAAUCUGCGAAUUCUGCUGU | 0.122
28 | GGGGGCCACAGCAGAAGCGUUCACUUCGCGGCCCCUGUCAGAAUCUGGUGAAUCUGCGAAUUCUGCUGU | 0.0919
29 | GGGGGCCACAGCAGAAGCGUUCACUUCGCGGCCCCUGUCAGAGUCUGGUGAAUCUGCGAAUUCUGCUGU | 0.148
30 | GGGGGCCACAGCAGAAGCGUUCACUUCGCGGCCCUUGUCAGAUUCUGGUGAAUCUGCGAAUUCUGCUGU | 0.139
31 | GGGGGCCACAGCAGAAGCGUUCACGACGCGGCCCCUGUCAGAUUCUGGUGAAUCUGCGACUUCUGCUGU | 0.285
32 | GGGGGCCACAGCAGAAGCGUUCACGACGCGGCCCCUGUGAGAUUCUGGUGAAUCUGCGAAUUCUGCUGU | 0.798
33 | GGGGGCCACAGCAGAAGCGUUCACGACGCGGCCCCUGUUAGAUUCUGGUGAAUCUGCGAAUUCUGCUGU | 0.722
34 | GGGGGCCACAGCAGAAGCGUUCACGACGCGGCCCCUGUAAGAUUCUGGUGAAUCUGCGAAUUCUGCUGU | 0.477
35 | GGGGGCCACAGCAGAAGCGUUCACGACGCGGCCCCUGUCAGAUUAUGGUGAAUCUGCGAAUUCUGCUGU | 0.828
36 | GGGGGCCACAGCAGAAGCGUUCACGACGCGGCCCCUGUCAGAUUGUGGUGAAUCUGCGAAUUCUGCUGU | 0.895
37 | GGGGGCCACAGCAGAAGCGUUCACGACGCGGCCCCUGUCAGAUUUUGGUGAAUCUGCGAAUUCUGCUGU | 0.879
38 | GGGGGCCACAGCAGAAGCGUUCACUUCGCGGCCCCUGUCAGGUUCUGGUGAAUCUGCGAAUUCUGCUGU | 0.129
39 | GGGGGCCACAGCAGAAGCGUUCACUUCGCGGCCCCUGUCAGAUUCUUGUGAAUCUGCGAAUUCUGCUGU | 0.148
40 | GGGGGCCACAGCAGAAGCGUUCACUUCGCGGCCCCUGUCAGAUUCUAGUGAAUCUGCGAAUUCUGCUGU | 0.188
41 | GGGGGCCACAGCAGAAGCGUUCACUUCGCGGCCCCUGUCAGAUUCUGGUGAAUCUGCGAAUACUGCUGU | 0.158
42 | GGGGGCCACAGCAGAAGCGUUCACUUCGCGGCCCCUGUCAGAUUCUGGUGAAUCUGCGAAUGCUGCUGU | 0.116
43 | GGGGGCCACAGCAGAAGCGUUCACGACGCGGCCCCUGUCAGAUUCUGGUGAAUCUGCGAAUUUUGCUGU | 0.779
44 | GGGGGCCACAGCAGAAGCGUUCACGACGCGGCCCCUGUCAGAUUCUGGUGAAUCUGCGAAUUGUGCUGU | 0.507
45 | GGGGGCCACAGCAGAAGCGUUCACCUCGCGGCCCCUGUCAGAUUCUGGUGAAUCUGCGAAUUCUGCCGU | 0.115
46 | GGGGGCCACAGCAGAAGCGUUCACGACGCGGCCCCUGUCUGAUUCUGGUGAAUCUGCGAAUUCUGCUGU | 0.531
47 | GGGGGCCACAGCAGAAGCGUUCACGACGCGGCCCGUGUCAGAUUCUGGUGAAUCUGCGAAUUCUGCUGU | 0.207
48 | GGGGGCCACAGCAGAAGCGUUCACUUCGCGGCCCCUGUCAGAUUCUGGUGAAUCUGCGGAUUCUGCUGU | 0.174
49 | GGGGGCCACAGCAGAAGCGUUCACGAAGCGGCCCCUGUCAGAUUCUGGUGAAUCUGCGAAUUCUGCUGU | 0.424
50 | GGGGGCCACAGCAGAAGCGUUCACUUCGCGGCCCCUGUCAGAUUCUGGAGAAUCUGCGAAUUCUGCUGU | 0.12
51 | GGGGGCCACAGCAGAAGCGUUCACUUCGCGGACCCUGUCAGAUUCUGGUGAAUCUGCGAAUUCUGCUGU | 0.162
52 | GGGGGCCACAGCAGAAGCGUUCACUUCGCGGUCCCUGUCAGAUUCUGGUGAAUCUGCGAAUUCUGCUGU | 0.228

Row | Variant | self-cleavage
53 | GGGGGCCACAGCAGAAGCGUUCACGACGCGGCCCCUGUCAGUUUCUGGUGAAUCUGCGAAUUCUGCUGU | 0.863
54 | GGGGGCCACAGCAGAAGCGUUCACUUCGCGGCCCCUGUCAGAUUCUGGUGAAUCUGCGACUUCUGCUGU | 0.132
55 | GGGGGCCACAGCAGAAGCGUUCACUUCGCGGCCCCUGUCAGAUUCUGGUGAAUCUGCGAGUUCUGCUGU | 0.229
56 | GGGGGCCACAGCAGAAGCGUUCACUUCGCGGCCCCUGUCAGAUUCUGGUGAAUCUGCGAUUUCUGCUGU | 0.13
57 | GGGGGCCACAGCAGAAGCGUUCACCUCGCGGCCCCUGUCAGAUUCUGGUGAAUCUGCGAAAUCUGCUGU | 0.193
58 | GGGGGCCACAGCAGAAGCGUUCACCUCGCGGCCCCUGUCAGAUUCUGGUGAAUCUGCGAACUCUGCUGU | 0.0705
59 | GGGGGCCACAGCAGAAGCGUUCACUUCUCGGCCCCUGUCAGAUUCUGGUGAAUCUGCGAAUUCUGCUGU | 0.145
60 | GGGGGCCACAGCAGAAGCGUUCACGACGCGGCCCCUGUCAGAUUCUGGUGAAUCUGAGAAUUCUGCUGU | 0.355
61 | GGGGGCCACAGCAGAAGCGUUCACUUCGCGGCCCCUGUCAGAUUCUGGUGAAUCUGCGAAUUCUGAUGU | 0.133
62 | GGGGGCCACAGCAGAAGCGUUCACUUCGCGGCCCCUGUCAGAUUCUGGUGAAUCUGCGAAUUCUGGUGU | 0.187
63 | GGGGGCCACAGCAGAAGCGUUCACGACGCGGCUCCUGUCAGAUUCUGGUGAAUCUGCGAAUUCUGCUGU | 0.85
64 | GGGGGCCACAGCAGAAGCGUUCACGACGCGGCACCUGUCAGAUUCUGGUGAAUCUGCGAAUUCUGCUGU | 0.682
65 | GGGGGCCACAGCAGAAGCGUUCACUUCGCGGCCCCUGUCAGAUUCUGGUGAAUCUGCGAAUUGUGCUGU | 0.175
66 | GGGGGCCACAGCAGAAGCGUUCACUUCGCGGCCCCUGUCAGAUUCUGGUGAAUCUGCGAAUUCUGCUAU | 0.204
67 | GGGGGCCACAGCAGAAGCGUUCACGACGCGGCCCCUGUCAGAUUCUGGUGGAUCUGCGAAUUCUGCUGU | 0.889
68 | GGGGGCCACAGCAGAAGCGUUCACGACGCGGCCCCUGUCAGAUUCUGGUGCAUCUGCGAAUUCUGCUGU | 0.871
69 | GGGGGCCACAGCAGAAGCGUUCACUUCGCGGCCCCUGUCAGAUUCUGGUGAAUCUACGAAUUCUGCUGU | 0.171
70 | GGGGGCCACAGCAGAAGCGUUCACUUCGCGGCCCCUGUCAGAUUCUGGUGAAUCUCCGAAUUCUGCUGU | 0.158
71 | GGGGGCCACAGCAGAAGCGUUCACUUCGCGGCCCCUGUCAGAUUCUGGUGAAUCUUCGAAUUCUGCUGU | 0.134
72 | GGGGGCCACAGCAGAAGCGUUCACGACGCGGCCCCUGUCAGAUUCUGGUGAAUAUGCGAAUUCUGCUGU | 0.655
73 | GGGGGCCACAGCAGAAGCGUUCACGACGCGGCCCCUGUCAGAUUCUGGUGAAUGUGCGAAUUCUGCUGU | 0.758
74 | GGGGGCCACAGCAGAAGCGUUCACUUCGCGGCCCCUGACAGAUUCUGGUGAAUCUGCGAAUUCUGCUGU | 0.168
75 | GGGGGCCACAGCAGAAGCGUUCACUUCGCGGCCCCUGCCAGAUUCUGGUGAAUCUGCGAAUUCUGCUGU | 0.13
76 | GGGGGCCACAGCAGAAGCGUUCACUUCGCGGCCCCUGUCAGAUUCUGGUGAAUCCGCGAAUUCUGCUGU | 0.229
77 | GGGGGCCACAGCAGAAGCGUUCACCUCGCGGCCCCUGUCAGAUUCUGGUGAAUCUGCGAAUUCCGCUGU | 0.181
78 | GGGGGCCACAGCAGAAGCGUUCACCUCGCGGCCCCUGUCAGAUUCUGGUGAAUCUGCGAAUUCGGCUGU | 0.155
